# Results from patent publication US7708999B2, “Remedies for arthritis” (Kyowa Hakko Kirin Co., Ltd., priority 2001, dated 2010).
# How the values were obtained:
# rabbit synovial cells = experiment: Promotion of growth of rabbit synovial cells with FGF-8 ([3H]thymidine incorporation); type: cell-based; conditions: FGF-8 1, 10 or 100 ng/mL tested
# Experimental: (§1) Rabbit synovial cells were collected by the method of Hamilton et al. (Hamilton J. A. and Slywka J., J. Immunol. 126, 851-855, 1981). The isolated synovial cells were suspended in RPMI 1640 medium comprising 10 vol % FBS (FBS-comprising RPMI 1640 medium is hereinafter referred to as FBS/RPMI 1640), and 10,000 cells was inoculated at each well of a 96-well culture plate. After 24 hours of the culturing, the culture medium of each well was removed, and 200 μL of 0.2 vol % FBS/RPMI 1640 (non-stimulated group) or 0.2 vol % FBS/RPMI 1640 comprising FGF-8 (1, 10 or 100 ng/mL) was added. When the activity of the anti-FGF-8 neutralizing antibody was examined, 200 μL of 0.2 vol % FBS/RPMI 1640 comprising FGF-8 (100 ng/mL) (0 group) or 0.2 vol % FBS/RPMI 1640 comprising FGF-8 (100 ng/mL) and anti-FGF-8 neutralizing antibody KM1334 (0.1, 0.3, 1, 3 or 10 μg/ml) was added to each well. After 48 hours of the culturing, 9.25 kBq per well of [^3H]thymidine was added. The culturing was further performed for 24 hours, and the radioactivity of [^3H]thymidine incorporated in the cells was measured using a liquid scintillation counter (1205 Beta Plate, manufactured by Perkin Elmer Life Science Japan). Six experiments were performed for each condition, and the mean values and the standard error were calculated.
# [1] = test system: rabbit articular chondrocytes; experiment: Promotion of production of matrix metalloproteinase-3 from rabbit chondrocytes with FGF-8; type: cell-based; conditions: 48 hours
# Experimental: Rabbit articular chondrocytes were isolated and cultured by the method described in Example 1. After the chondrocytes became confluent, the culture solution was replaced with 0.5 vol % FBS/DMEM, followed by the culturing for 24 hours. The culture solution was removed, and 1 mL of 0.5 vol % FBS/DMEM (non-stimulated group), 0.5 vol % FBS/DMEM comprising FGF-8 (100 ng/mL)(0 group) or 0.5 vol % FBS/DMEM comprising FGF-8 (100 ng/mL) and anti-FGF-8 neutralizing antibody KM1334 (1, 3 or 10 μg/mL) was added, followed by the culturing for 48 hours. After 48 hours, the culture medium was recovered, the matrix metalloproteinase-3 concentration in the culture medium was measured using rabbit matrix metalloproteinase-3 ELISA system (manufactured by Amersham Biosciences). Three experiments were performed for each condition, and the mean values and the standard error were calculated.
# [2] = test system: human synovial cells derived from the rheumatoid arthritis patient; experiment: Promotion of growth of human synovial cells with FGF-8 ([3H]thymidine incorporation); type: cell-based; conditions: FGF-8 10, 100 or 500 ng/mL tested
# Experimental: as §1, with “When the activity of the anti-FGF-8 neutralizing antibody was examined, 200 μL of 0.2 vol % FBS/RPMI 1640 comprising FGF-8 (100 ng/mL) (0 group) or 0.2 vol % FBS/RPMI 1640 comprising FGF-8 (100 ng/mL) and anti-FGF-8 neutralizing antibody KM1334 (0.1, 0.3, 1, 3 or 10 μg/ml) was added to each well. After 48 hours of the culturing, 9.25 kBq per well of [^3H]thymidine was added.” left out
# The same experiment as in Example 3 was performed using human synovial cells derived from the rheumatoid arthritis patient (procured from Toyobo). […] Six experiments were performed for each condition, and the mean values and the standard error were calculated.
# [3] = test system: rabbit articular chondrocytes; experiment: Degradation of extracellular matrix of rabbit chondrocytes with FGF-8; type: cell-based; conditions: 48 hours, FGF-8 1, 10 or 100 ng/mL tested
# Experimental: Rabbit articular chondrocytes were isolated from both knees and shoulders of 3-week-old New Zealand white female rabbits and cultured according to the method of Tamura et al. (Tamura T. et al., Eur. J. Pharmacol., 419, 269-274, 2001). That is, the joints of both knees and the joints of both shoulders were isolated to collect the epiphyseal cartilages. […] The culture solution was removed, and the amount of glycosaminoglycan in extracellular matrix remaining on the plate was measured by the dimethymethylene blue (DMMB) method (Chandrasekhar S. et al., Anal. Biochem. 161 103-108, 1987). […] To 75 μL of this digested solution were added 25 μL of a guanidine hydrochloride buffer (2.88 mol/L guanidine hydrochloride, 50 mmol/L sodium acetate, pH 6.8) and 200 μL of a DMMB solution, and the absorbance was measured at 530/590 nm. The concentration of glycosaminoglycan of each sample was calculated from the absorbance of chondroitin sulfate (derived from whale cartilages, manufactured by Seikagaku Kogyo) used as a standard. Three experiments were performed for each condition and the mean values and the standard error were calculated.
# [4] = test system: knee joint of Sprague-Dawley rats; experiment: Induction of arthritis by intraarticular injection of FGF-8; type: in vivo, rat; conditions: 50 μL of 1 mg/mL FGF-8 into knee joint of rats, after 3 days
# Experimental: Arthritis-like phenotypes were induced in Sprague-Dawley rats (male, 7 weeks old, Japan Charles River) using FGF-8 in the following manner. Fifty μL of FGF-8 solution prepared with saline(manufactured by Otsuka Seiyaku Kojo) to a final concentration of 1 mg/mL was injected into the each knee joint of rats. Further, a group that injected 50 μL of saline into the knee joint was also prepared. One group consisted of 3 rats. After 3 days from the injection of FGF-8 or saline, the inside of the knee articular capsule was washed with 30 μL of saline comprising 0.38 w/v % sodium citrate to collect the lavage fluid, according to the method of Yamada et al (Yamada A. et al., Inflamm. Res., 49, 144-146, 2000). This procedure was repeated ten times to recover 300 μL of the joint lavage fluid. The amount of glycosaminoglycan in the joint lavage fluid was measured by the DMMB method described in Example 1. The patella of the knee joint was isolated, and the cartilaginous portion was digested with papain by the method described in Example 1 to measure the […].
molecule,measurement,setting,value
"FGF-8: fibroblast growth factor FGF-8, androgen-induced growth factor; manufactured by Peprotech (protein, UniProt P55075 23-233, looked up) Fibroblast growth factor 8: QEGPGRGPALGRELASLFRAGREPQGVSQQHVREQSLVTDQLSRRLIRTYQLYSRTSGKHVQVLANKRINAMAEDGDPFAKLIVETDTFGSRVRVRGAETGLYICMNKKGKLIAKSNGKGKDCVFTEIVLENNYTALQNAKYEGWYMAFTRKGRPRKGSKTRQHQREVHFMKRLPRGHHTTEQSLRFEFLNYPPFTRSLRGSQRTWAPEPR",concentration at which FGF-8 significantly promoted the incorporation of [3H]thymidine into the rabbit synovial cells,rabbit synovial cells,100 ng/mL
same,concentration at which FGF-8 significantly increased the production of matrix metalloproteinase-3 from the chondrocytes,[1],100 ng/mL
same,concentration at which FGF-8 significantly promoted the incorporation of [3H]thymidine into the human synovial cells,[2],500 ng/mL
same,concentration at which FGF-8 significantly decreased the residual amount of glycosaminoglycan in extracellular matrix,[3],100 ng/mL
same,concentration of glycosaminoglycan in the joint lavage fluid relative to the saline injected group,[4],1.9 times
same,weight of the patella after papain digestion relative to the saline injected group,[4],40%
